Patent US20230312672A1 (published 2023)

Biological target: T1, CD20 peptide on HLA-A*02:01 (human)
T1 peptide: SLFLGILSV
Test: multimer staining

binding result: recognises
B1: TCR 79B2 (TCR, V domains shown)
Valpha: GEQVEQLPSILRVQEGSSASINCSYEDSASNYFPWYKQEPGENPKLIIDIRSNMERKQIQELIVLLDKKAKRFSLHITDTQPGDSAMYFCAASANTGANTGKLTFGHGTILRVHP
Vbeta: ETAVFQTPNYHVTQVGNEVSFNCKQTLGHDTMYWYKQDSKKLLKIMFSYNNKQLIVNETVPRRFSPQSSDKAHLNLRIKSVEPEDSAVYLCASSWGLGSYEQYFGPGTRLTVL
